Test results as given in patent US20250009801A1 (Innovent, published 2025).
Substitutions are numbered along the chain they refer to. Names and notes keep the numbering of the source.

B1: HuR968B CAR on CAR-T cells (receptor)
chain: EVQLVESGGGLVQPGGSLRLSCAASGFTFSRYWMNWVRQAPGKGLEWVGEITPDSSTINYAPSLKGRFTISRDNAKNSLYLQMNSLRAEDTAVYYCARPYDYGAWFASWGQGTLVTVSSGGGGSGGGGSGGGGSGGGGSQAVVTQEPSLTVSPGGTVTLTCRSSTGAVTTSNYANWVQEKPDHLFTGLIGGTNKRAPGTPARFSGSLLGGKAALTLSGAQPEDEAEYYCALWYSNHWVFGGGTKLTVLGGGGSIYIWAPLAGTCGVLLLSLVITLYCKRGRKKLLYIFKQPFMRPVQTTQEEDGCSCRFPEEEEGGCELRVKFSRSADAPAYQQGQNQLYNELNLGRREEYDVLDKRRGRDPEMGGKPRRKNPQEGLYNELQKDKMAEAYSEIGMKGERRRGKGHDGLYQGLSTATKDTYDALHMQALPPR
B2: Hz3G3 PG Ab (antibody, human IgG1, kappa, V domains shown)
VH: QVQLVQSGAEVKKPGASVKVSCKASGYSFTTYWMHWVRQAPGQGLEWMGLIDPSDSETRLNQKFKDRVTMTVDTSTSTVYMELSSLRSEDTAVYYCASNRWLLGWGQGTLVTVSS
VL: DIVMTQSPDSLAVSLGERATINCKSSQSLLNSGNQKNYLTWYQQKPGQPPKLLIYWASTRESGVPDRFSGSGSGTDFTLTISSLQAEDVAVYYCQNDYSYPLTFGQGTKLEIKR
notes: also called G3 PG antibody; G3 antibody
B3: Hz69H9 PG Ab (P329G mutated Hz69H9 antibody, human IgG1) (antibody, V domains shown)
VH: QVQLVQSGAEVKKPGSSVKVSCKASGYSFSSYNIHWVRQAPGQGLEWMGYIAPFQGDSRYNQKFKGRVTITADKSTSTAYMELSSLRSEDTAVYYCARLNRGNSLDYWGQGTLVTVSS
VL: B2 VL with L30F, K36R, D97N, S99I, Q106G, L110V
notes: also called H9 PG antibody; P329G H9 antibody
B4: Hz69H9-SA PG Ab (antibody, human IgG1, kappa, V domains shown)
VH: B3 VH with H35S, S58A
VL: B2 VL with L30F, K36R, D97N, S99I, Q106G, L110V
notes: Mutant of the parent Hz69H9 with point mutations in VH or VL; also called H9-SA PG antibody
B5: Hz69H9-1.2 PG Ab (antibody, human IgG1, kappa, V domains shown)
VH: B3 VH with S58A, N103Q
VL: B2 VL with L30F, S32A, K36R, D97N, S99I, Q106G, L110V
notes: Mutant of the parent Hz69H9 with point mutations in VH or VL; also called H9-1.2 PG antibody

Legend:
[1] = target: HB37A6 PG Ab (P329G mutated HB37A6 antibody, human IgG1); test: cell-based or functional assay
Chain of HB37A6 PG Ab (P329G mutated HB37A6 antibody, human IgG1) (heavy, as listed by the source, chain 1 of 2): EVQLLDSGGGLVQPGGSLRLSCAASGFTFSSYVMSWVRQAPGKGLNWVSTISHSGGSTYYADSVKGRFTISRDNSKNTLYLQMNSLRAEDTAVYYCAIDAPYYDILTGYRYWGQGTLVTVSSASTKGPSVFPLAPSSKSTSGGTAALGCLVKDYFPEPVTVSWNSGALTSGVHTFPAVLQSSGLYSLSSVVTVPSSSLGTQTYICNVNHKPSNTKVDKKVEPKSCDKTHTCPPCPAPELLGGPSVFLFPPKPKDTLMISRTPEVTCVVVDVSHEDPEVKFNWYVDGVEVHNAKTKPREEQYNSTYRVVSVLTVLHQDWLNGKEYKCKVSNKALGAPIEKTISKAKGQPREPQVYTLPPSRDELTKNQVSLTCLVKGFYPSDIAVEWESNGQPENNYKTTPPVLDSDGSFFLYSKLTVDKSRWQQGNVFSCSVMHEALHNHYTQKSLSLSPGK
Chain of HB37A6 PG Ab (P329G mutated HB37A6 antibody, human IgG1) (light, as listed by the source, chain 2 of 2): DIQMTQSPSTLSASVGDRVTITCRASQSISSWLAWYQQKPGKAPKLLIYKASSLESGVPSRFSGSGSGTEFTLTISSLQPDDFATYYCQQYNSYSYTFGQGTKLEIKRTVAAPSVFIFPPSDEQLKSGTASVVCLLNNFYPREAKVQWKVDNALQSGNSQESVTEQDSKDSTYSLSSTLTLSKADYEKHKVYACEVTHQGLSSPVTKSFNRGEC

[2] = target: T1, human Claudin18.2-His (Acro, CL2-H5546) (human, UniProt P56856-2 1-261); test: SPR (Biacore T200), Claudin18.2-His coupled on CM5 chip, antibody in the mobile phase (avidity)
T1 construct: Bought reagent, amine-coupled to a CM5 chip; also called recombinant human CLDN18.2 protein; not shown: His tag

Binder	proliferation of CAR-T cells on plate-bound antibody (CellTiter-Glo), 2 days, against the WT antibody [1] [fold]	proliferation of CAR-T cells on plate-bound antibody (CellTiter-Glo), 3 days, against the WT antibody [1] [fold]	Kd [2] [nM]	koff [2] [s⁻¹]	kon [2] [M⁻¹ s⁻¹]
B1	~2	~3.3			
B2			2.5	0.00177	709000
B3			< 0.00527	< 1e-05	1.9e+06
B4			0.325	0.000153	471000
B5			0.98	0.00185	1.89e+06
